Experimental data taken from the supplement of paper PMC10567573.

B1: ZNF263 (parent)
chain: HLTRHQRTHTGEKPYKCTLCGENF

Variants of: B1
Test: protein stability index of a GFP-peptide fusion (GPS, HEK-293T) (PSI 1-6); higher = more stable
Settings: c terminus: a fixed tail appended
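Note: lentivirally expressed fusions sorted by FACS into six bins by GFP to DsRed ratio, PSI derived from sequencing read proportions per bin multiplied by bin number.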

Compared with HLTRHQRTHWGEKPYKCTLCGENF [T10W], HLTRHQRTHLGEKPYKCTLCGENF [T10L] is lower in protein stability index: 2.82 for the first, 1.98 for the second.

First: HLTRHQRTHAGEKPYKCTLCGENF [T10A]
Second: HLTRHQRTHPGEKPYKCTLCGENF [T10P]
The protein stability index of the first is higher: 3.14 for the first, 2.45 for the second.

Compared with HLTRHQRTHSGEKPYKCTLCGENF [T10S], HLTRHQRTHRGEKPYKCTLCGENF [T10R] is higher in protein stability index: 3.12 for the first, 3.36 for the second.

Going from HLTRHQRTHNGEKPYKCTLCGENF [T10N] to HLTRHQRTHQGEKPYKCTLCGENF [T10Q], the protein stability index rises from 2.44 to 3.44.

Compared with HLTRHQRTHMGEKPYKCTLCGENF [T10M], HLTRHQRTHFGEKPYKCTLCGENF [T10F] is higher in protein stability index: 2.48 for the first, 2.73 for the second.

Compared with HLTRHQRTHHGEKPYKCTLCGENF [T10H], HLTRHQRTHCGEKPYKCTLCGENF [T10C] is lower in protein stability index: 3.19 for the first, 2.96 for the second.

Compared with HLTRHQRTHIGEKPYKCTLCGENF [T10I], HLTRHQRTHYGEKPYKCTLCGENF [T10Y] is lower in protein stability index: 3.13 for the first, 2.58 for the second.

Compared with HLTRHQRTHDGEKPYKCTLCGENF [T10D], HLTRHQRTHKGEKPYKCTLCGENF [T10K] is higher in protein stability index: 2.78 for the first, 3.12 for the second.

First: HLTRHQRTHEGEKPYKCTLCGENF [T10E]
Second: HLTRHQRTHVGEKPYKCTLCGENF [T10V]
The protein stability index of the first is higher: 3.42 for the first, 2.45 for the second.

First: HLTRHQRTHGGEKPYKCTLCGENF [T10G]
Second: HLTIHQRTHTGEKPYKCTLCGENF [R4I]
The protein stability index of the first is higher: 2.92 for the first, 2.61 for the second.

Compared with HLTDHQRTHTGEKPYKCTLCGENF [R4D], HLTEHQRTHTGEKPYKCTLCGENF [R4E] is lower in protein stability index: 4.07 for the first, 3.7 for the second.

First: HLTMHQRTHTGEKPYKCTLCGENF [R4M]
Second: HLTFHQRTHTGEKPYKCTLCGENF [R4F]
The protein stability index of the first is higher: 2.83 for the first, 2.38 for the second.

Compared with HLTSHQRTHTGEKPYKCTLCGENF [R4S], HLTGHQRTHTGEKPYKCTLCGENF [R4G] is lower in protein stability index: 3.37 for the first, 2.38 for the second.

Going from HLTPHQRTHTGEKPYKCTLCGENF [R4P] to HLTNHQRTHTGEKPYKCTLCGENF [R4N], the protein stability index falls from 3.76 to 3.09.

Going from HLTLHQRTHTGEKPYKCTLCGENF [R4L] to HLTHHQRTHTGEKPYKCTLCGENF [R4H], the protein stability index rises from 3.22 to 3.53.

Compared with HLTYHQRTHTGEKPYKCTLCGENF [R4Y], HLTVHQRTHTGEKPYKCTLCGENF [R4V] is higher in protein stability index: 2.76 for the first, 3.35 for the second.

First: HLTKHQRTHTGEKPYKCTLCGENF [R4K]
Second: HLTTHQRTHTGEKPYKCTLCGENF [R4T]
The protein stability index of the first is higher: 3.47 for the first, 3.1 for the second.

Going from HLTAHQRTHTGEKPYKCTLCGENF [R4A] to HLTQHQRTHTGEKPYKCTLCGENF [R4Q], the protein stability index falls from 3.43 to 3.32.

Compared with HLTCHQRTHTGEKPYKCTLCGENF [R4C], HLTWHQRTHTGEKPYKCTLCGENF [R4W] is lower in protein stability index: 3.67 for the first, 2.5 for the second.

Going from HLTRHQRTHTYEKPYKCTLCGENF [G11Y] to HLTRHQRTHTQEKPYKCTLCGENF [G11Q], the protein stability index rises from 2.17 to 3.55.

Going from HLTRHQRTHTHEKPYKCTLCGENF [G11H] to HLTRHQRTHTDEKPYKCTLCGENF [G11D], the protein stability index rises from 2.83 to 3.25.

Compared with HLTRHQRTHTTEKPYKCTLCGENF [G11T], HLTRHQRTHTKEKPYKCTLCGENF [G11K] is higher in protein stability index: 3.01 for the first, 3.06 for the second.

Compared with HLTRHQRTHTFEKPYKCTLCGENF [G11F], HLTRHQRTHTREKPYKCTLCGENF [G11R] is higher in protein stability index: 2.72 for the first, 2.94 for the second.

First: HLTRHQRTHTMEKPYKCTLCGENF [G11M]
Second: HLTRHQRTHTCEKPYKCTLCGENF [G11C]
The protein stability index of the first is lower: 2.84 for the first, 4.07 for the second.

Compared with HLTRHQRTHTAEKPYKCTLCGENF [G11A], HLTRHQRTHTNEKPYKCTLCGENF [G11N] is lower in protein stability index: 3.15 for the first, 2.98 for the second.

Compared with HLTRHQRTHTPEKPYKCTLCGENF [G11P], HLTRHQRTHTWEKPYKCTLCGENF [G11W] is lower in protein stability index: 2.86 for the first, 2.07 for the second.

Compared with HLTRHQRTHTIEKPYKCTLCGENF [G11I], HLTRHQRTHTVEKPYKCTLCGENF [G11V] is lower in protein stability index: 2.46 for the first, 2.38 for the second.

Going from HLTRHQRTHTEEKPYKCTLCGENF [G11E] to HLTRHQRTHTSEKPYKCTLCGENF [G11S], the protein stability index falls from 3.92 to 3.45.

Compared with HLTRHQRTHTLEKPYKCTLCGENF [G11L], HLTRHQRTDTGEKPYKCTLCGENF [H9D] is lower in protein stability index: 2.99 for the first, 2.83 for the second.

First: HLTRHQRTKTGEKPYKCTLCGENF [H9K]
Second: HLTRHQRTFTGEKPYKCTLCGENF [H9F]
The protein stability index of the first is higher: 3.58 for the first, 2.22 for the second.

Compared with HLTRHQRTQTGEKPYKCTLCGENF [H9Q], HLTRHQRTNTGEKPYKCTLCGENF [H9N] is higher in protein stability index: 2.67 for the first, 2.79 for the second.

First: HLTRHQRTWTGEKPYKCTLCGENF [H9W]
Second: HLTRHQRTATGEKPYKCTLCGENF [H9A]
The protein stability index of the first is lower: 1.89 for the first, 2.67 for the second.

First: HLTRHQRTGTGEKPYKCTLCGENF [H9G]
Second: HLTRHQRTLTGEKPYKCTLCGENF [H9L]
The protein stability index of the first is higher: 3.04 for the first, 2.51 for the second.

Going from HLTRHQRTYTGEKPYKCTLCGENF [H9Y] to HLTRHQRTITGEKPYKCTLCGENF [H9I], the protein stability index rises from 2.19 to 2.48.

Going from HLTRHQRTETGEKPYKCTLCGENF [H9E] to HLTRHQRTCTGEKPYKCTLCGENF [H9C], the protein stability index falls from 3.41 to 2.74.

First: HLTRHQRTPTGEKPYKCTLCGENF [H9P]
Second: HLTRHQRTSTGEKPYKCTLCGENF [H9S]
The protein stability index of the first is higher: 2.77 for the first, 2.71 for the second.

First: HLTRHQRTVTGEKPYKCTLCGENF [H9V]
Second: HLTRHQRTTTGEKPYKCTLCGENF [H9T]
The protein stability index of the first is lower: 2.65 for the first, 3.04 for the second.

First: HLTRHQRTMTGEKPYKCTLCGENF [H9M]
Second: HLTRHQRTRTGEKPYKCTLCGENF [H9R]
The protein stability index of the first is lower: 2.5 for the first, 3.11 for the second.

Compared with HLTRHQRTHTGECPYKCTLCGENF [K13C], HLTRHQRTHTGEAPYKCTLCGENF [K13A] is lower in protein stability index: 4.22 for the first, 3.28 for the second.

First: HLTRHQRTHTGEDPYKCTLCGENF [K13D]
Second: HLLRHQRTHTGEKPYKCTLCGENF [T3L]
The protein stability index of the first is higher: 2.82 for the first, 2.1 for the second.

Going from HLIRHQRTHTGEKPYKCTLCGENF [T3I] to HLHRHQRTHTGEKPYKCTLCGENF [T3H], the protein stability index rises from 2.33 to 3.4.

Going from HLWRHQRTHTGEKPYKCTLCGENF [T3W] to HLQRHQRTHTGEKPYKCTLCGENF [T3Q], the protein stability index rises from 2.31 to 3.28.

Compared with HLYRHQRTHTGEKPYKCTLCGENF [T3Y], HLKRHQRTHTGEKPYKCTLCGENF [T3K] is higher in protein stability index: 2.36 for the first, 3.1 for the second.

Compared with HLNRHQRTHTGEKPYKCTLCGENF [T3N], HLRRHQRTHTGEKPYKCTLCGENF [T3R] is higher in protein stability index: 3.6 for the first, 3.77 for the second.

Compared with HLMRHQRTHTGEKPYKCTLCGENF [T3M], HLGRHQRTHTGEKPYKCTLCGENF [T3G] is lower in protein stability index: 2.63 for the first, 2.3 for the second.

Compared with HLVRHQRTHTGEKPYKCTLCGENF [T3V], HLSRHQRTHTGEKPYKCTLCGENF [T3S] is lower in protein stability index: 2.93 for the first, 2.83 for the second.

Going from HLPRHQRTHTGEKPYKCTLCGENF [T3P] to HLTRHLRTHTGEKPYKCTLCGENF [Q6L], the protein stability index rises from 2.48 to 2.61.
